First the molecules themselves.
B1: Azoarcus group I ribozyme (parent)
chain: GUGCCUUGCGCCGGGAAACCACGCAAGGGAUGGUGUCAAAUUCGGCGAAACCUAAGCGCCCGCCCGGGCGUAUGGCAACGCCGAGCCAAGCUUCGGCGCCUGCGCCGAUGAAGGUGUAGAGACUAGACGGCACCCACCUAAGGCAAACGCUAUGGUGAAGGCAUAGUCCAGGGAGUGGCGAAAGUCACACAAACCGG

Variants of B1 are the subject of the data set. The data set can be described thus: reverse-splicing fitness (ratio to wild type); higher = more active; in vitro selection; Mg2+ level not given. The method in brief: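 An in vitro group I ribozyme library with randomized positions was T7-transcribed and gel-purified. In triplicate, 10 pmol RNA in EPPS pH 7.5 was reacted with 50 pmoles of a 30-nt RNA substrate for 1 h at 37 °C across several added MgCl2 levels (1–48 mM), then stopped with EDTA. Products were reverse transcribed from a substrate-complementary primer, PCR-amplified and sequenced (HiSeq 4000). Fitness is a variant's read proportion after selection over that before, normalised to wild type.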
With GUGCCUUGCGCCGGGAAACCACGCAAGGGAUGGUGUCAAAUUCGGCGAAACCUAAGCGCCCGCCCGGGCGUAUGGCAACGCUGAGCCAAGCUUCGGCGCCUGCGCCGAUGGAGGUGUAGCGACUAGACGGCACCCACCUAAGGCUAACGGUAUGGUGAAGGCAUAGUCGAGGGAGUGGCGAAAGUCACACAAACCGG [C82U A111G A120C A145U C150G C169G], the reverse-splicing fitness turned out to be 0.00698.
With GUGCCUUGCGCCGGGAAACCACGCAAGGGAUGGUGUCAAAUUCGGCGAAACCUAAGCGCCCGCCCGGGCGUAUGGCAACGCAGAGCCAAGCUUCGGCGCCUGCGCCGAUGCAGGUGUAGGGACUAGACGGCACCCACCUAAGGCGAACGUUAUGGUGAAGGCAUAGUCCAGGGAGGGGCGAAAGUCACACAAACCGG [C82A A111C A120G A145G C150U U176G] the figure was 0.00706; with GUGCCUUGCGCCGGGAAACCACGCAAGGGAUGGUGUCAAAUUCGGCGAAACCUAAGCGCCCGCCCGGGCGUAUGGCAACGCUGAGCCAAGCUUCGGCGCCUGCGCCGAUGAAGGUGUAGGGACUAGACGGCACCCACCUAAGGCUAACGAUAUGGUGAAGGCAUAGUCCAGGGAGAGGCGAAAGUCACACAAACCGG [C82U A120G A145U C150A U176A], 0.00948; with GUGCCUUGCGCCGGGAAACCACGCAAGGGAUGGUGUCAAAUUCGGCGAAACCUAAGCGCCCGCCCGGGCGUAUGGCAACGCGGAGCCAAGCUUCGGCGCCUGCGCCGAUGUAGGUGUAGUGACUAGACGGCACCCACCUAAGGCCAACGGUAUGGUGAAGGCAUAGUCGAGGGAGUGGCGAAAGUCACACAAACCGG [C82G A111U A120U A145C C150G C169G], 0.00344.
With GUGCCUUGCGCCGGGAAACCACGCAAGGGAUGGUGUCAAAUUCGGCGAAACCUAAGCGCCCGCCCGGGCGUAUGGCAACGCCGAGCCAAGCUUCGGCGCCUGCGCCGAUGAAGGUGUAGUGACUAGACGGCACCCACCUAAGGCAAACGCUAUGGUGAAGGCAUAGUCUAGGGAGCGGCGAAAGUCACACAAACCGG [A120U C169U U176C] the figure was 0.139.
The result for GUGCCUUGCGCCGGGAAACCACGCAAGGGAUGGUGUCAAAUUCGGCGAAACCUAAGCGCCCGCCCGGGCGUAUGGCAACGCUGAGCCAAGCUUCGGCGCCUGCGCCGAUGUAGGUGUAGAGACUAGACGGCACCCACCUAAGGCGAACGCUAUGGUGAAGGCAUAGUCGAGGGAGGGGCGAAAGUCACACAAACCGG [C82U A111U A145G C169G U176G] reads 0.00528.
With GUGCCUUGCGCCGGGAAACCACGCAAGGGAUGGUGUCAAAUUCGGCGAAACCUAAGCGCCCGCCCGGGCGUAUGGCAACGCCGAGCCAAGCUUCGGCGCCUGCGCCGAUGUAGGUGUAGAGACUAGACGGCACCCACCUAAGGCAAACGGUAUGGUGAAGGCAUAGUCAAGGGAGUGGCGAAAGUCACACAAACCGG [A111U C150G C169A], the reverse-splicing fitness stood at 0.00956.
The result for GUGCCUUGCGCCGGGAAACCACGCAAGGGAUGGUGUCAAAUUCGGCGAAACCUAAGCGCCCGCCCGGGCGUAUGGCAACGCCGAGCCAAGCUUCGGCGCCUGCGCCGAUGAAGGUGUAGUGACUAGACGGCACCCACCUAAGGCCAACGCUAUGGUGAAGGCAUAGUCUAGGGAGCGGCGAAAGUCACACAAACCGG [A120U A145C C169U U176C] reads 0.1.
With GUGCCUUGCGCCGGGAAACCACGCAAGGGAUGGUGUCAAAUUCGGCGAAACCUAAGCGCCCGCCCGGGCGUAUGGCAACGCGGAGCCAAGCUUCGGCGCCUGCGCCGAUGGAGGUGUAGGGACUAGACGGCACCCACCUAAGGCUAACGUUAUGGUGAAGGCAUAGUCAAGGGAGAGGCGAAAGUCACACAAACCGG [C82G A111G A120G A145U C150U C169A U176A] the figure was 0.0154.
With GUGCCUUGCGCCGGGAAACCACGCAAGGGAUGGUGUCAAAUUCGGCGAAACCUAAGCGCCCGCCCGGGCGUAUGGCAACGCGGAGCCAAGCUUCGGCGCCUGCGCCGAUGCAGGUGUAGGGACUAGACGGCACCCACCUAAGGCCAACGAUAUGGUGAAGGCAUAGUCGAGGGAGGGGCGAAAGUCACACAAACCGG [C82G A111C A120G A145C C150A C169G U176G] the figure was 0.00529; with GUGCCUUGCGCCGGGAAACCACGCAAGGGAUGGUGUCAAAUUCGGCGAAACCUAAGCGCCCGCCCGGGCGUAUGGCAACGCCGAGCCAAGCUUCGGCGCCUGCGCCGAUGUAGGUGUAGGGACUAGACGGCACCCACCUAAGGCGAACGGUAUGGUGAAGGCAUAGUCUAGGGAGUGGCGAAAGUCACACAAACCGG [A111U A120G A145G C150G C169U], 0.0237; with GUGCCUUGCGCCGGGAAACCACGCAAGGGAUGGUGUCAAAUUCGGCGAAACCUAAGCGCCCGCCCGGGCGUAUGGCAACGCGGAGCCAAGCUUCGGCGCCUGCGCCGAUGUAGGUGUAGCGACUAGACGGCACCCACCUAAGGCCAACGUUAUGGUGAAGGCAUAGUCGAGGGAGCGGCGAAAGUCACACAAACCGG [C82G A111U A120C A145C C150U C169G U176C], 0.0221.
As for GUGCCUUGCGCCGGGAAACCACGCAAGGGAUGGUGUCAAAUUCGGCGAAACCUAAGCGCCCGCCCGGGCGUAUGGCAACGCAGAGCCAAGCUUCGGCGCCUGCGCCGAUGAAGGUGUAGAGACUAGACGGCACCCACCUAAGGCGAACGCUAUGGUGAAGGCAUAGUCGAGGGAGAGGCGAAAGUCACACAAACCGG [C82A A145G C169G U176A], the reverse-splicing fitness worked out at 0.0218.
The result for GUGCCUUGCGCCGGGAAACCACGCAAGGGAUGGUGUCAAAUUCGGCGAAACCUAAGCGCCCGCCCGGGCGUAUGGCAACGCGGAGCCAAGCUUCGGCGCCUGCGCCGAUGCAGGUGUAGUGACUAGACGGCACCCACCUAAGGCAAACGCUAUGGUGAAGGCAUAGUCCAGGGAGAGGCGAAAGUCACACAAACCGG [C82G A111C A120U U176A] reads 0.0113; that for GUGCCUUGCGCCGGGAAACCACGCAAGGGAUGGUGUCAAAUUCGGCGAAACCUAAGCGCCCGCCCGGGCGUAUGGCAACGCUGAGCCAAGCUUCGGCGCCUGCGCCGAUGAAGGUGUAGGGACUAGACGGCACCCACCUAAGGCGAACGUUAUGGUGAAGGCAUAGUCAAGGGAGAGGCGAAAGUCACACAAACCGG [C82U A120G A145G C150U C169A U176A], 0.0153.

Source of the values: the RNAGym collection of RNA variant scans (doi:10.1093/molbev/msab373).
